Experimental data: patent US20260193348A1 (ANTENGENE BIOLOGICS, published 2026)
Where a chain is given by its changes, count along the chain named. In names and notes the source's numbering stands. Each block holds one binder with its values, some of them ahead of it.

Tests used:
GPRC5D on MM.1S cells [1] = biological target: T1, GPRC5D on MM.1S cells (human, UniProt Q9NZD1 1-345); assay: FACS on MM.1S cells
T1 construct: whole, on cells; MM.1S is called a GPRC5D positive expressed cell line and human multiple myeloma cells; also called G-protein coupled receptor family C group 5 member D
T1 sequence (Q9NZD1 whole entry): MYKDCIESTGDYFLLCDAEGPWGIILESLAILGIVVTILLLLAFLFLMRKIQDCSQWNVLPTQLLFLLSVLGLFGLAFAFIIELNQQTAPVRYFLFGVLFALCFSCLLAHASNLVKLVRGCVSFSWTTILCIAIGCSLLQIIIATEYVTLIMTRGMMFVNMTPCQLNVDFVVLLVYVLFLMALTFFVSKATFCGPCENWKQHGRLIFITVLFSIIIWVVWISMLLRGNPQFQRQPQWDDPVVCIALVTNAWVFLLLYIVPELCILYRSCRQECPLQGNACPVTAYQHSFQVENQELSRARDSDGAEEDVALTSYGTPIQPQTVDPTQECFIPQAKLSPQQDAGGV
Method: (§1) The binding affinities of the generated humanized Fab-scFv-Fab bispecific antibodies were determined by FACS analysis. […] (a) Jurkat cells were washed by Staining Buffer (PBS+1% BSA) in round bottom 96-well plate. [0833] (b) Antibody dilutions and cells were added to each well, incubated at 4 degrees for 1 hour. [0834] (c) Cells were spined down at 300 g for 3 minutes, and the supernatants were discarded. [0835] (d) Cells were washed with Staining Buffer. […] (e) Step (d) was repeated and the cells were incubated for 0.5 hours at 4 degrees with secondary antibody in Staining Buffer. [0837] (f) After incubation, step (d)-(e) were repeated. […] (g) Staining Buffer was added and fluorescence signals were recorded by flow cytometry.
The binding affinities of the generated humanized Fab-scFv-Fab bispecific antibodies were determined by FACS analysis. The ATG-Bis-40E9 was used as positive control and hIgG1 isotype was used as negative control. The protocol for FACS analysis is identical to that described in Example 3.2, except that MM.1S cells were used in this example.

CD3 on Jurkat cells = biological target: T2, CD3 on Jurkat cells (UniProt P07766 23-207; P04234 22-171; P09693 23-182); assay: FACS on Jurkat cells
T2 construct: whole, on cells; On the cell, CD3 stands in the TCR-CD3 complex; also called cluster of differentiation 3
T2 sequence (P07766 23-207, chain 1 of 3): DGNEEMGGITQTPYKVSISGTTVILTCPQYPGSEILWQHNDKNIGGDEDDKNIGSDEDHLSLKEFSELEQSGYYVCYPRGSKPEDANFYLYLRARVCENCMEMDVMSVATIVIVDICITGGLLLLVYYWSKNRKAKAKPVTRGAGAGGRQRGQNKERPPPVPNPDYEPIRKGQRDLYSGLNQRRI
T2 sequence (P04234 22-171, chain 2 of 3): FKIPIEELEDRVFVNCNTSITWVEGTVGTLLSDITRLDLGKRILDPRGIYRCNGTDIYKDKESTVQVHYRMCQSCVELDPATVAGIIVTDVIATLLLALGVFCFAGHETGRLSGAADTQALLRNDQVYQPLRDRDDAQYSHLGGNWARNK
T2 sequence (P09693 23-182, chain 3 of 3): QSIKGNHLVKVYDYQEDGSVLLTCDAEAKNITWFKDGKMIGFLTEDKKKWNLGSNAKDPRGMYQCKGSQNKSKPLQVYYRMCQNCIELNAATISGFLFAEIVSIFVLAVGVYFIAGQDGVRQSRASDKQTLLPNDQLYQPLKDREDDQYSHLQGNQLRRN
Method: as §1
The binding affinities of the generated humanized Fab-scFv-Fab bispecific antibodies were determined by FACS analysis. The ATG-Bis-40E9 described in Example 1 was used as positive control and hIgG1 isotype was used as negative control. The protocol for FACS analysis is described in Example 3.2 above.

GPRC5D on MM.1S cells [2] = biological target: T1, GPRC5D on MM.1S cells; assay: cell-based or functional assay
GPRC5D on MM.1S cells [3] = biological target: T1, GPRC5D on MM.1S cells; assay: cell-based or functional assay; remark: listed apart in the source

- EC50 (GPRC5D on MM.1S cells [1]): 1.29 nM
- Top signal (GPRC5D on MM.1S cells [1]): 1820 MFI
- Top signal (CD3 on Jurkat cells): 141 MFI
- EC50, Jurkat-NFAT-Luciferase assay in the presence of MM.1S cells (GPRC5D on MM.1S cells [3]): 0.26 nM
- Top RLU, Jurkat-NFAT-Luciferase assay in the presence of MM.1S cells (GPRC5D on MM.1S cells [3]): 358 RLU
B1: Bis-108+147-S102Q.H (bispecific antibody)
chain 1: EVQLVQSGAEVKKPGASVKVSCKASGYTFTSYVIHWVRQAPGQGLEWMGYFNPYNDGTKYNEEFKGRVTLTSDKSTSTAYMELRSLRSDDTAVYYCARGGVRRYFDVWGQGTTVTVSS
chain 2: EVQLVQSGAEVKKPGSSVKVSCKASGYTFTSYWMHWVRQAPGQCLEWMGNINPSSGATNYNEKFKSRVTLTVDKSTSTAYMELSSLRSEDTAVYYCARDRSQQYYFDYWGQGTTVTVSSGGGGSGGGGSGGGGSGGGGSDIVMTQSPDSLAVSLGERATINCKSSQSLLNSRSRKNYLAWYQQKPGQPPKLLIYWASTRESGVPDRFSGSGSGTDFTLTISSLQAEDVAVYYCTQSYTLRTFGCGTKVEIK
chain 3: DIQMTQSPSSLSASVGDRVTITCRASQDIGSNLNWLQQKPGKAIKRLIYATFGLDSGVPSRFSGSRSGTDFTLTISSLQPEDFATYYCQQYASFPYTFGGGTKVEIK
- IC50 of T-cell dependent cytotoxicity on MM.1S cells (GPRC5D on MM.1S cells [2]): 2.78 nM
- Top (%) target cell killing, MM.1S cells (GPRC5D on MM.1S cells [2]): 131%

- EC50 (GPRC5D on MM.1S cells [1]): 2 nM
- Top signal (GPRC5D on MM.1S cells [1]): 2040 MFI
- Top signal (CD3 on Jurkat cells): 158 MFI
- EC50, Jurkat-NFAT-Luciferase assay in the presence of MM.1S cells (GPRC5D on MM.1S cells [3]): 0.22 nM
- Top RLU, Jurkat-NFAT-Luciferase assay in the presence of MM.1S cells (GPRC5D on MM.1S cells [3]): 380 RLU
B2: Bis-108+147-S32T.L (bispecific antibody)
chain 1: B1 chain 1
chain 2: B1 chain 2 with Q102S, S171T
chain 3: B1 chain 3
- IC50 of T-cell dependent cytotoxicity on MM.1S cells (GPRC5D on MM.1S cells [2]): 4.76 nM
- Top (%) target cell killing, MM.1S cells (GPRC5D on MM.1S cells [2]): 166%

- EC50 (GPRC5D on MM.1S cells [1]): 1.87 nM
- Top signal (GPRC5D on MM.1S cells [1]): 1830 MFI
- Top signal (CD3 on Jurkat cells): 50.9 MFI
- EC50, Jurkat-NFAT-Luciferase assay in the presence of MM.1S cells (GPRC5D on MM.1S cells [3]): 0.98 nM
- Top RLU, Jurkat-NFAT-Luciferase assay in the presence of MM.1S cells (GPRC5D on MM.1S cells [3]): 39.2 RLU
B3: Bis-108+147-R100Q.H (bispecific antibody)
chain 1: B1 chain 1
chain 2: B1 chain 2 with R100Q, Q102S
chain 3: B1 chain 3
- IC50 of T-cell dependent cytotoxicity on MM.1S cells (GPRC5D on MM.1S cells [2]): 7.53 nM
- Top (%) target cell killing, MM.1S cells (GPRC5D on MM.1S cells [2]): 46.3%
